Measured values reported in PMC10772735, “Characterization of erythroferrone oligomerization and its impact on BMP antagonism” (The Journal of Biological Chemistry, 2023).

B1: N-terminally flag-tagged hERFE (residues 44–354), WT erythroferrone [human] / BMP6 [not stated] (parent)
chain 1: PPPGNELPRGPGESRAGPAARPPEPTAERAHSVDPRDAWMLFVRQSDKGVNGKKRSRGKAKKLKFGLPGPPGPPGPQGPPGPIIPPEALLKEFQLLLKGAVRQRERAEPEPCTCGPAGPVAASLAPVSATAGEDDDDVVGDVLALLAAPLAPGPRAPRVEAAFLCRLRRDALVERRALHELGVYYLPDAEGAFRRGPGLNLTSGQYRAPVAGFYALAATLHVALGEPPRRGPPRPRDHLRLLICIQSRCQRNASLEAIMGLESSSELFTISVNGVLYLQMGQWTSVFLDNASGCSLTVRSGSHFSAVLLGV
chain 2: SASSRRRQQSRNRSTQSQDVARVSSASDYNSSELKTACRKHELYVSFQDLGWQDWIIAPKGYAANYCDGECSFPLNAHMNATNHAIVQTLVHLMNPEYVPKPCCAPTKLNAISVLYFDDNSNVILKKYRNMVVRACGCH

Variants of: B1
Test: SPR competition (BMP6 + ERFE over Alk3-Fc captured on protein A chip)
Conditions: curve maximum near the ~300 s dotted line, RU is residual BMP6 binding to Alk3-Fc (lower RU = more competition by ERFE), read off a plot

Row | Variant | response (with BMP6, 10 nM BMP6 + 80 nM F85A ERFE) | response (with BMP6, 10 nM BMP6 + 160 nM F85A ERFE) | response (with BMP6, 10 nM BMP6 + 80 nM W82A ERFE) | response (with BMP6, 10 nM BMP6 + 160 nM W82A ERFE)
1 | chain 1 F42A | 12 RU | 11 RU |  | 
2 | chain 1 W39A |  |  | 12 RU | 10 RU
